Reference: patent US20250297004A1, “NECTIN-4 BINDING AGENTS” (INNATE PHARMA, priority 2022, published 2025)
Changes are numbered by the printed parent chain. One block for each binder: values may come before it.

Experiments:
Test in all cases: binding to HEK293T cells expressing Nectin-4 mutant
human Nectin-4 Mutant 2 = target: T1, human Nectin-4 Mutant 2 (human, UniProt Q96NY8 32-510)
T1 construct: Expressed on transfected HEK293T cells; also called V90S/P92A/A93S/E95A/G96D
T1 chain: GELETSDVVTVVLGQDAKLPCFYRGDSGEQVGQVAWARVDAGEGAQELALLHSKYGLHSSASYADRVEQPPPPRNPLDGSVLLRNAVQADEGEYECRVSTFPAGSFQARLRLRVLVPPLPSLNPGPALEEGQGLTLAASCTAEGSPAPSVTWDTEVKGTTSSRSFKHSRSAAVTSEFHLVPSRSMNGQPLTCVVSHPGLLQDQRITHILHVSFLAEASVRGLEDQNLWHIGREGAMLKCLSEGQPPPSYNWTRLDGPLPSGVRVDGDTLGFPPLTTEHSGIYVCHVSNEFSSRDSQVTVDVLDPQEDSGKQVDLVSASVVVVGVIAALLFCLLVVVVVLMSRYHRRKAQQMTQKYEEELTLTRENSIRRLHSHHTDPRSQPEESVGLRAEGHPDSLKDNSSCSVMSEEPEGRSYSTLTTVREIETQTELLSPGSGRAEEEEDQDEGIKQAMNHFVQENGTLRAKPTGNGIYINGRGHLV

human Nectin-4 Mutant 3 = target: T2, human Nectin-4 Mutant 3 (human, UniProt Q96NY8 32-510)
T2 construct: Expressed on transfected HEK293T cells; also called A76S/Q77R/E78A/S91N
T2 chain: T1 chain with A45S, Q46R, E47A, S59V, S60N, A61P, S62A, A64E, D65G

human Nectin-4 Mutant 4 = target: T3, human Nectin-4 Mutant 4 (human, UniProt Q96NY8 32-510)
T3 construct: Expressed on transfected HEK293T cells; also called A72P/G73N/G75S
T3 chain: T1 chain with A41P, G42N, G44S, S59V, A61P, S62A, A64E, D65G

human Nectin-4 Mutant 6 = target: T4, human Nectin-4 Mutant 6 (human, UniProt Q96NY8 32-510)
T4 construct: Expressed on transfected HEK293T cells; also called H238A/I239T/H241Q
T4 chain: T1 chain with S59V, A61P, S62A, A64E, D65G, H207A, I208T, H210Q

human Nectin-4 Mutant 9 = target: T5, human Nectin-4 Mutant 9 (human, UniProt Q96NY8 32-510)
T5 construct: Expressed on transfected HEK293T cells; also called L150S/S152A/Q234R/I236S
T5 chain: T1 chain with S59V, A61P, S62A, A64E, D65G, L119S, S121A, Q203R, I205S

binding result (human Nectin-4 Mutant 2): binds
binding result (human Nectin-4 Mutant 3): binds
binding result (human Nectin-4 Mutant 4): binds
binding result (human Nectin-4 Mutant 6): binds
binding result (human Nectin-4 Mutant 9): binds
B1: chimeric parental 5E7 antibody (antibody, V domains shown)
VH: QVQLQQPGAELVKPGASVKLSCKASGYIFTSYWMHWVKQRPGQGLEWIGEIDPSDSYTNYNQKFKGKATLTLDKSSSTTYMQLSSLTSEDSAVYYCVRGYGNYGDYWGQGTTLTVSS
VL: DVVMTQAAFSNPVTLGTSASISCRSSKSLLHSNGITYLYWYLQKPGQSPQLLIYQMSNLASGVPDRFSSSGSGTDFTLRISRVEAEDVGVYYCAQNLELPWTFGGGTKLEIKR
notes: Chimeric antibody, murine variable domains with human constant regions; also called ch5E7; CHG1-M-1N4-5E7

B2: N41 (antibody, V domains shown)
VH: QVQLKQSGPGLVQPSQSLSITCTVSGFSLTNYGVHWVRQSPGKGLEWLGVIWSGGSTDYNAAFISRLSISKDTSKSQVFFKMNSLQADDTAIYYCARELIHAMDNWGQGTSVTVSS
VL: DIQMTQSPASLSVSVGETVTITCRASENIYSNLAWYQQKQGNSPQLLVFAATNLADGVPSRFSGSGSGTQYSLKINSLQSEDFGTYYCQHFWGTPTFGGGTKLEIK
binding result (human Nectin-4 Mutant 2): binds
binding result (human Nectin-4 Mutant 3): binds
binding result (human Nectin-4 Mutant 4): binds
binding result (human Nectin-4 Mutant 6): binds
binding result (human Nectin-4 Mutant 9): binds
